Read-outs that look alike come from different tables or passages of the source.

Assay [1] addresses Y2-like receptor population expressed by human SK-N-Be(2) neuroblastoma cells. Description: ratio of Ki values, 125I-PYY displacement.
For assay [2] the target is unchanged. Description: 125I-PYY displacement, SK-N-Be(2) membranes.
For assay [3], the target named is human Y1 receptor (human) (UniProt P25929). Description: 125I-PYY displacement, COS-7 membranes.
Assay [4] addresses human Y4 receptor (human) (UniProt P0DQD5). The assay can be described thus: 125I-PYY displacement, COS-7 membranes.
Assay [5] shares this target. Description: 125I-PYY displacement, COS-7 membranes. This is another data set of the same source.
The target of the next assay is rat Y4 receptor (rat) (UniProt Q63447). The assay can be described thus: 125I-PYY displacement, COS-7 membranes.
Sequence of rat Y4 receptor (rat) (Q63447 whole entry R262P): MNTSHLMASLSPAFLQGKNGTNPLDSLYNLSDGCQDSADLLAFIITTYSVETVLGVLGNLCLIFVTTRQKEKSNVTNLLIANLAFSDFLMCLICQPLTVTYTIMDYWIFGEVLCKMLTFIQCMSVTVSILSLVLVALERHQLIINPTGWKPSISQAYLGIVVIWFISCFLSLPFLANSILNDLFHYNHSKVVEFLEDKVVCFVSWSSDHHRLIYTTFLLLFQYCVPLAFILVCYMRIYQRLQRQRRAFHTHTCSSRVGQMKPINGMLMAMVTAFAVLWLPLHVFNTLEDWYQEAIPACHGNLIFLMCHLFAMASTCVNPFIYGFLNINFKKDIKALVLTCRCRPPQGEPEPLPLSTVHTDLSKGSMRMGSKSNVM
Assay [6] has as its target human Y1 receptor (human) (UniProt P25929). Description: 125I-PYY displacement, COS-7 membranes. The source holds these as a separate data set.
Assay [7] addresses human Y2 receptor (human) (UniProt P49146). The assay can be described thus: 125I-PYY displacement, COS-7 membranes.
Assay [8] addresses human Y4 receptor (human) (UniProt P0DQD5). Description: 125I-PYY displacement, COS-7 membranes. The source holds these as a separate data set.
In assay [9] the target is human Y1 receptor (human) (UniProt P25929). The assay can be described thus: ratio of Ki values, 125I-PYY displacement.
Assay [10] has as its target human Y4 receptor (human) (UniProt P0DQD5). The assay can be described thus: ratio of Ki values, 125I-PYY displacement.
For assay [11] the target is unchanged. Description: 125I-PYY displacement, COS-7 membranes (as in Table 3).
Assay [12] shares this target. Description: cell-based or functional assay.

Sequence of human Y4 receptor (human) (P0DQD5 whole entry): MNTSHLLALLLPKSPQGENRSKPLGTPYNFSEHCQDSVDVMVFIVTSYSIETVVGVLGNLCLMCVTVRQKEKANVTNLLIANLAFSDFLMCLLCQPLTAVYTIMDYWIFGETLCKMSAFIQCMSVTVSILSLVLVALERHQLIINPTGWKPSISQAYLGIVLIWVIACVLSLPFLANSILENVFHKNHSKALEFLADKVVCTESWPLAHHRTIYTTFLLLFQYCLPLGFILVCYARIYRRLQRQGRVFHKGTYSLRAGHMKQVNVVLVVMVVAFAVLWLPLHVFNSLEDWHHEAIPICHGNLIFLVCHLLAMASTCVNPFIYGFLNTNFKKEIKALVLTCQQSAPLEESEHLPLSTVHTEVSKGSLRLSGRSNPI
Sequence of human Y2 receptor (human) (P49146 whole entry): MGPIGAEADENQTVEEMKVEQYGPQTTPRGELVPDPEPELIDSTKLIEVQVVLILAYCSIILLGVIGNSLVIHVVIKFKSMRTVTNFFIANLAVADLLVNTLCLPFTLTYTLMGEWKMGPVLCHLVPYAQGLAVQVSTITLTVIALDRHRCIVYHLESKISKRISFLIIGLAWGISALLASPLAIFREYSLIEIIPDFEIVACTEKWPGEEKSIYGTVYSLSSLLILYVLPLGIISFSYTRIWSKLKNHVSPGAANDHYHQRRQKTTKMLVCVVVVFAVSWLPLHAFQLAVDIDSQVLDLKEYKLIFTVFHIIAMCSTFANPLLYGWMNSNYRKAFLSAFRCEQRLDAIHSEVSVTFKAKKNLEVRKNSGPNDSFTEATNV
Sequence of PP, salmon (peptide) (P69092 whole entry): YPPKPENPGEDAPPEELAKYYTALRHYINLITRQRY
Sequence of human Y1 receptor (human) (P25929 whole entry): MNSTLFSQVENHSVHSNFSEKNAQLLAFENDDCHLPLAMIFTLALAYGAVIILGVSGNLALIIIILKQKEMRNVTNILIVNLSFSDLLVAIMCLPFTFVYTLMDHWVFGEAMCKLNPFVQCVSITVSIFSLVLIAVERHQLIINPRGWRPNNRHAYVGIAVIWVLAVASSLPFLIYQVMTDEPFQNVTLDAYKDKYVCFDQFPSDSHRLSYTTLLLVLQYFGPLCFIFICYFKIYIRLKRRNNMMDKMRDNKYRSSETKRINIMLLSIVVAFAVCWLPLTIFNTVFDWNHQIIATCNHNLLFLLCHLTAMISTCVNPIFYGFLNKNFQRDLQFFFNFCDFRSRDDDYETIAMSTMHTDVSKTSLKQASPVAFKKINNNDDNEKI

For “human peptide YY (from UniProt P10082 29-64)”, the fold higher affinity than at hp25a in [1] lay within 5 to 10 fold. Moreover, the Ki in assay [2] stood at 0.00011 µM.

In the case of PP, frog (peptide), the Ki in [3] is 0.098 µM; in assay [4], 0.061 µM; in assay [5], 0.062 µM; with rat Y4 receptor (rat), 0.00019 µM.

In assay [5], “PP31-36 free acid, human (from UniProt P01298 60-65) (peptide)” registered an inhibitory constant (Ki) above 10 µM.

“porcine NPY16-36 (from UniProt P01304 25-45) (peptide)”: the Ki was determined as 0.045 µM in assay [6]; 0.041 µM in assay [3]; 0.0036 µM in assay [7]; 0.054 µM in assay [4]; 0.005 µM in assay [2].

Turning to “porcine NPY26-36 (from UniProt P01304 35-45) (peptide)”, the Ki was above 0.3 µM in assay [6], 0.38 µM in assay [7] and 0.07 µM in [2].

Take “porcine NPY20-36 (from UniProt P01304 29-45) (peptide)”: the Ki stood at 0.062 µM in assay [6]; 0.1 µM in assay [8]; 0.063 µM in assay [3]; 0.12 µM in assay [4]; 0.0031 µM in [2].

“porcine NPY22-36 (from UniProt P01304 31-45) (peptide)”: the inhibition constant (Ki) in assay [6] amounted to 0.17 µM; in assay [8] it was 0.14 µM; in [7] it was 0.018 µM; in assay [2], 0.0032 µM. Besides, the figures for the fold loss in affinity against full length porcine NPY in assay [1], in [9] and in assay [10] were 11 fold, 3500 fold and 120 fold, respectively.

As for “porcine NPY18-36 (from UniProt P01304 27-45) (peptide)”, the inhibitory constant (Ki) is 0.028 µM in [6]; 0.063 µM in [8]; 0.07 µM in assay [3]; 0.0021 µM in assay [2]; above 0.29 µM in assay [11].

PP, avian (peptide): the Ki in [3] came out at 0.4 µM; in [4], 0.007 µM.

Turning to “porcine NPY2-36 (from UniProt P01304 11-45) (peptide)”, the inhibitory constant (Ki) in assay [8] was 0.0044 µM; in assay [3], 0.0024 µM; in [4] it was 0.0056 µM; in assay [2], 0.00041 µM.

As to “human NPY free acid (from UniProt P01303 29-64) (peptide)”, the Ki in [2] came out at 0.28 µM.

PP, salmon (peptide) registered an EC50, inhibition of forskolin-stimulated cAMP accumulation, LM(tk-) cells in [12] of 0.11 µM. Further, the Ki in assay [3] was 0.0002 µM; in [4], 0.0032 µM; with rat Y4 receptor (rat) it was 0.00036 µM; in [11] it was 0.0032 µM.

Regarding “porcine NPY13-36 (from UniProt P01304 22-45) (peptide)”, the Ki in assay [6] turned out to be 0.051 µM; in [8] it was 0.039 µM; in assay [3], 0.07 µM; in [7], 0.0025 µM; in assay [4] it was 0.038 µM; with rat Y4 receptor (rat), 0.135 µM.

Turning to C2-NPY, porcine (peptide), the inhibitory constant (Ki) amounted to 0.073 µM in assay [3], 0.0035 µM in assay [7], 0.12 µM in assay [4] and 0.022 µM with rat Y4 receptor (rat).

One may read the Ki as a dissociation constant, usually derived from enzyme kinetics or from competition with a known ligand. Higher therefore signals weaker binding.

The values are drawn from patent US6913892.
